Measured values published in patent publication US8647868B2, “Compositions and methods for increasing production of recombinant gamma-carboxylated proteins” (Wake Forest University Health Sciences, priority 2005, dated 2014).

B1: reduced RNAse: bovine ribonuclease B reduced with DTT; used to trigger VKOR activity (protein, UniProt P61823 27-150, looked up)
Ribonuclease pancreatic: KETAAAKFERQHMDSSTSAASSSNYCNQMMKSRNLTKDRCKPVNTFVHESLADVQAVCSQKNVACKNGQTNCYQSYSTMSITDCRETGSSKYPNCAYKTTQANKHIIVACEGNPYVPVHFDASV
modifications: reduced with DTT

Legend:
blood clotting activity = experiment: Blood clotting activity (APTT) of purified r-hFIX; type: biochemical, human; settings: purified from medium of 200 nM siRNA SMART pool treated (r-hFIX+VKORC1) BHK cells
Description: Warfarin sensitive VKOR activity was measured as described (19) by estimating the percent conversion of vitamin K1 2,3-epoxide (Vit.K>O) to vitamin K1. The vitamin and the epoxide were separated on a reversed phase C18 column in 100% methanol and quantified against external standards. VKOR activity was either triggered with 5 mM DTT or 0.32 mM reduced RNAse. Reduced bovine RNAse was prepared according to a modified method originally described by Rupp et al. (20). One hundred mg RNAse was dissolved in 500 μl of 0.2 M Tris-Acetate, 6 M guanidinium hydrochloride, pH 8.0. Seventy-two mg DTT was added and the solution was left at 37° C. for one hour. Then the pH was adjusted to 4.0 with acetic acid and DTT, Tris and guanidinium hydrochloride removed by gel filtration on a column of Sephadex G-25 equilibrated in 0.1 M acetic acid. Prior to chromatography, the column resin and the 0.1 M acetic acid were saturated with N2. The void volume fraction containing reduced RNAse was distributed into sealed 0.75 ml serum flasks filled with N2 which were stored at 4° C. until use. […] Blood clotting activities of purified r-hFIX and plasma hFIX were determined with the Activated Partial Thromboplastin Time (APPT) kit APTT-SP (liquid)-0020006300 from Instrumentation Laboratory, Lexington, Mass. […]

γ-carboxylase = experiment: FLEEL γ-carboxylation in extracted rat liver microsomes triggered by reduced RNAse; type: biochemical; settings: 40 μM vitamin K1 2,3-epoxide, no DTT
Description: Rat liver microsomes extracted of luminal and peripherally bound membrane proteins (see Experimental Procedures) were tested for FLEEL γ-carboxylation when the reaction was triggered by reduced RNAse (black bar) and reduced vitamin K1H2 (shaded bar). When reduced RNAse was used, the test system contained 40 μM vitamin K1 2,3-epoxide as the source of the γ-carboxylase cofactor. No DTT was present in the assays. Each bar represents the average activity of three parallel incubations. Standard deviation is shown on each bar.
For removal of microsomal luminal and peripherally bound membrane proteins, microsomes obtained from 4 g of rat liver were suspended in 8 ml of 100 mM Na2CO3, 1.2 M KCl, 0.025% deoxycholate, pH 11.5 with a Potter Elvehjelm glass homogenizer and centrifuged at 100,000×g for 45 min (14). […]
Warfarin sensitive VKOR activity was measured as described (19) by estimating the percent conversion of vitamin K1 2,3-epoxide (Vit.K>O) to vitamin K1. The vitamin and the epoxide were separated on a reversed phase C18 column in 100% methanol and quantified against external standards. […] Blood clotting activities of purified r-hFIX and plasma hFIX were determined with the Activated Partial Thromboplastin Time (APPT) kit APTT-SP (liquid)-0020006300 from Instrumentation Laboratory, Lexington, Mass. […]

Molecule | specific activity of functional r-hFIX (blood clotting activity) [units/mg] | FLEEL γ-carboxylation triggered by reduced RNAse (γ-carboxylase)
r-hFIX: functional recombinant human factor IX purified from medium of engineered BHK cells | 147 | 
B1 |  | to the same extent as chemically reduced vitamin K1H2
